Assay [1] concerns the target human TIM-3 expressed on cells (UniProt Q8TDQ0 22-301). The assay is described as follows: cell binding (FACS); TIM-3-transfected 300.19 cells.
Assay [2] addresses TIM-3 (assay antigen; species and construct not stated) (UniProt Q8TDQ0 22-202). The assay can be described thus: SPR (BIAcore). For orientation: In SPR one partner is held on a chip, and binding of the other changes the refractive index at the surface.
Assay [3] deals with T1, cynomolgus TIM-3 expressed on transfected cells (cynomolgus, UniProt A0A2K5U3G7 22-294).
T1 chain: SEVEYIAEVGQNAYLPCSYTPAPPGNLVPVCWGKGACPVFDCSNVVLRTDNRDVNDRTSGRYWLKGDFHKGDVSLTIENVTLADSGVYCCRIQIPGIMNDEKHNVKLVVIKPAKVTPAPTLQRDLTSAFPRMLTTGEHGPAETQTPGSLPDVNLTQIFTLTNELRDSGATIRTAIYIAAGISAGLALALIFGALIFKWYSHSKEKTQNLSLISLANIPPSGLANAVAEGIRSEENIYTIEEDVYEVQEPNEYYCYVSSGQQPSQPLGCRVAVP
The assay is described as follows: cell binding (FACS); cyno TIM-3 cells.

B1: ABTIM3 (antibody, V domains shown)
VH: QVQLQQPGAELVKPGASVKMSCKASGYTFTSYNMHWIKQTPGQGLEWIGDIYPGNGDTSYNQKFKGKATLTADKSSSTVYMQLSSLTSEDSAVYYCARVGGAFPMDYWGQGTSVTVSS
VL: DIVLTQSPASLAVSLGQRATISCRASESVEYYGTSLMQWYQQKPGQPPKLLIYAASNVESGVPARFSGSGSGTDFSLNIHPVEEDDIAIYFCQQSRKDPSTFGGGTKLEIK
As a reminder, the Kd is the equilibrium constant for the complex coming apart. The low end stands for tighter binding, the high end for weaker binding. As for B1, the equilibrium dissociation constant (Kd) in assay [1] is 0.16 nM; in assay [2] it was 0.042 nM; in assay [3], 0.68 nM.

The values are drawn from patent US20220133889A1 (published 2022).
